Results as given in IntAct's records for PubMed 12860405.

B1: Interleukin-1 receptor-associated kinase 1 (Homo sapiens), P51617 (parent)
chain: MAGGPGPGEPAAPGAQHFLYEVPPWVMCRFYKVMDALEPADWCQFAALIVRDQTELRLCERSGQRTASVLWPWINRNARVADLVHILTHLQLLRARDIITAWHPPAPLPSPGTTAPRPSSIPAPAEAEAWSPRKLPSSASTFLSPAFPGSQTHSGPELGLVPSPASLWPPPPSPAPSSTKPGPESSVSLLQGARPFPFCWPLCEISRGTHNFSEELKIGEGGFGCVYRAVMRNTVYAVKRLKENADLEWTAVKQSFLTEVEQLSRFRHPNIVDFAGYCAQNGFYCLVYGFLPNGSLEDRLHCQTQACPPLSWPQRLDILLGTARAIQFLHQDSPSLIHGDIKSSNVLLDERLTPKLGDFGLARFSRFAGSSPSQSSMVARTQTVRGTLAYLPEEYIKTGRLAVDTDTFSFGVVVLETLAGQRAVKTHGARTKYLKDLVEEEAEEAGVALRSTQSTLQAGLAADAWAAPIAMQIYKKHLDPRPGPCPPELGLGLGQLACCCLHRRAKRRPPMTQVYERLEKLQAVVAGVPGHSEAASCIPPSPQENSYVSSTGRAHSGAAPWQPLAAPSGASAQAAEQLQRGPNQPVESDESLGGLSAALRSWHLTPSCPLDPAPLREAGCPQGDTAGESSWGSGPGSRPTAVEGLALGSSASSSSEPPQIIINPARQKMVQKLALYEDGALDSLQLLSSSSLPGLGLEQDRQGPEESDEFQS
partner: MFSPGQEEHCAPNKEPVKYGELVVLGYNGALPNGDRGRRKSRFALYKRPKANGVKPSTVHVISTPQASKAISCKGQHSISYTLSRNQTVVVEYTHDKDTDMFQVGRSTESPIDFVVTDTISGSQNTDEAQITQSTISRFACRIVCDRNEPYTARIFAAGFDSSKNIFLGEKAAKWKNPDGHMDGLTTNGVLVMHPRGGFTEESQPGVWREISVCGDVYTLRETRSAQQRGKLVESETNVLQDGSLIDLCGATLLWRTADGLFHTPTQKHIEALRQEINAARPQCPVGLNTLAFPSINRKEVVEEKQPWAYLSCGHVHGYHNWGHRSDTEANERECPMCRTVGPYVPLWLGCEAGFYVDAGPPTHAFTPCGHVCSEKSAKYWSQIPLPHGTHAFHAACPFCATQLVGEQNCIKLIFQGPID
B2: Interleukin-1 receptor-associated kinase 4 (Homo sapiens), Q9NWZ3 (parent)
chain: MNKPITPSTYVRCLNVGLIRKLSDFIDPQEGWKKLAVAIKKPSGDDRYNQFHIRRFEALLQTGKSPTSELLFDWGTTNCTVGDLVDLLIQNEFFAPASLLLPDAVPKTANTLPSKEAITVQQKQMPFCDKDRTLMTPVQNLEQSYMPPDSSSPENKSLEVSDTRFHSFSFYELKNVTNNFDERPISVGGNKMGEGGFGVVYKGYVNNTTVAVKKLAAMVDITTEELKQQFDQEIKVMAKCQHENLVELLGFSSDGDDLCLVYVYMPNGSLLDRLSCLDGTPPLSWHMRCKIAQGAANGINFLHENHHIHRDIKSANILLDEAFTAKISDFGLARASEKFAQTVMTSRIVGTTAYMAPEALRGEITPKSDIYSFGVVLLEIITGLPAVDEHREPQLLLDIKEEIEDEEKTIEDYIDKKMNDADSTSVEAMYSVASQCLHEKKNKRPDIKKVQQLLQEMTAS
partner: B1 partner

Variants of: B1
Conditions: with peli2_human PELI2, Q9HAT8

effect of a mutation on the interaction | Variant
disrupting interaction | K239S

Variants of: B2
Conditions: with peli2_human PELI2, Q9HAT8

effect of a mutation on the interaction | Variant
disrupting interaction | K213A
